Reference: patent US20240287172A1 (SCIRHOM, published 2024)

T1: miR2-FL-WT-T7 (mouse, UniProt Q80WQ6 1-827)
T1 construct: on MEF-DKO cells
T1 sequence: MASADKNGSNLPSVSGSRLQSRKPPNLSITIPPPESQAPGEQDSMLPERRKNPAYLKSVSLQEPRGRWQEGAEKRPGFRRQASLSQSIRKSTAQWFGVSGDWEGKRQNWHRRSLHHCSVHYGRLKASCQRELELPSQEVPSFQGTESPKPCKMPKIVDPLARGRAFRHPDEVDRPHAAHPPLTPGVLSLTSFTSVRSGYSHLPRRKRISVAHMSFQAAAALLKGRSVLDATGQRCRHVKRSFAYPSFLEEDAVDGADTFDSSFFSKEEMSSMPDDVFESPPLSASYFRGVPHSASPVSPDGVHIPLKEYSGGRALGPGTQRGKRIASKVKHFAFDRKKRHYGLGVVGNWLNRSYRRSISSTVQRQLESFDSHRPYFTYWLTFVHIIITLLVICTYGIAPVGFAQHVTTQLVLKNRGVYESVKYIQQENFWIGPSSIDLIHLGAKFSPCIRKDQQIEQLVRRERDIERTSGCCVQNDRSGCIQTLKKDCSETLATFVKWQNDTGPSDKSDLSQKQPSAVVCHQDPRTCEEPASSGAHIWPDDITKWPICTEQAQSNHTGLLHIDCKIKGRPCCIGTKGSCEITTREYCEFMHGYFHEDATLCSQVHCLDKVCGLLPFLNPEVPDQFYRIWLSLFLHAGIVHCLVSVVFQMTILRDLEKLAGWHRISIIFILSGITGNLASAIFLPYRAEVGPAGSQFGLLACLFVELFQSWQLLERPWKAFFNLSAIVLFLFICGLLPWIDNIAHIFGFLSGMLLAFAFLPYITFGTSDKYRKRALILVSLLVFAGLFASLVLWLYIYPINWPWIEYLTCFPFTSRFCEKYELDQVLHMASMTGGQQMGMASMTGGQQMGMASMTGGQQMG

T2: hiR2-FL-G546A-T7 (human, UniProt Q6PJF5 1-856)
T2 sequence: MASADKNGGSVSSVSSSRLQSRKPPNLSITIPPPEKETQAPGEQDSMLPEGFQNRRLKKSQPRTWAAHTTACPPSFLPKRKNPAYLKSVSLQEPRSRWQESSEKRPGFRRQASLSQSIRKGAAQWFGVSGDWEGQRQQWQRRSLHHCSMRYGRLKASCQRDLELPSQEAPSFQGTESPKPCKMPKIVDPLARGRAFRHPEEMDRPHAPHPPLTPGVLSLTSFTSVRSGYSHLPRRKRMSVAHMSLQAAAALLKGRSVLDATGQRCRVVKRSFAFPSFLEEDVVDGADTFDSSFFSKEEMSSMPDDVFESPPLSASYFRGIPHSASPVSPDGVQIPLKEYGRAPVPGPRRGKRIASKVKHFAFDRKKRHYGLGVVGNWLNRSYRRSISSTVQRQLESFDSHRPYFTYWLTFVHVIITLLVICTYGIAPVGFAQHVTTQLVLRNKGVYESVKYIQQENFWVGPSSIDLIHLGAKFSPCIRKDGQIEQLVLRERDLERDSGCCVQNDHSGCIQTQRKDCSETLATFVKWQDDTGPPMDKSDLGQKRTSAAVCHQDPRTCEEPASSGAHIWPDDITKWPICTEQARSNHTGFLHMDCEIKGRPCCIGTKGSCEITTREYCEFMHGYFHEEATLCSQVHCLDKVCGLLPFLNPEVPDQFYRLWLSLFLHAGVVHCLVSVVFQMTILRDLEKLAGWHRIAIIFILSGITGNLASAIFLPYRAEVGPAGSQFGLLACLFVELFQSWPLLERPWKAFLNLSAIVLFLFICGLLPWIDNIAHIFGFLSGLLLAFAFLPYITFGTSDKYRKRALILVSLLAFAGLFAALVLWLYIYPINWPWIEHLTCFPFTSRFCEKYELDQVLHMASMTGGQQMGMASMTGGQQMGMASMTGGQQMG


Assays:
[1] = molecular target: T1, miR2-FL-WT-T7; assay: FACS on MEF-DKO cells
[2] = molecular target: T1, miR2-FL-WT-T7; assay: FACS, MEF-DKO cells, 3 µg/ml
Excerpt: (§1) In brief, immortalized MEF-DKO-hiR2-FL-WT-T7 cells, MEF-DKO-miR2-FL-WT-T7 cells and MEF-DKO-hiR2-FL-R441K-T7, MEF-DKO-hiR2-FL-K443R-T7, MEF-DKO-hiR2-FL-V459I-T7, MEF-DKO-hiR2-FL-G481Q-T7, MEF-DKO-hiR2-FL-L488R-T7, MEF-DKO-hiR2-FL-L493I-T7, MEF-DKO-hiR2-FL-D496T-T7, MEF-DKO-hiR2-FL-H505R-T7, MEF-DKO-hiR2-FL-Q512L-T7, MEF-DKO-hiR2-FL- R513K-T7, MEF-DKO-hiR2-FL-D528N-T7, MEF-DKO-hiR2-FL-P533-T7, MEF-DKO-hiR2-FL-M534S-T7, MEF-DKO-hiR2-FL-G540S-T7, MEF-DKO-hiR2-FL-R543Q-T7, MEF-DKO-hiR2-FL-T544P-T7, MEF-DKO-hiR2-FL-G546A-T7, MEF-DKO-hiR2-FL-A547V-T7, MEF-DKO-hiR2-FL-R582Q-T7, MEF-DKO-hiR2-FL-F588L-T7, MEF-DKO-hiR2-FL-M591I-T7, MEF-DKO-hiR2-FL-E594K-T7, MEF-DKO-hiR2-FL-E626D-T7, MEF-DKO-hiR2-FL-L657I-T7, and MEF-DKO-hiR2-FL-H835Y-T7 cells were harvested with 10 mM EDTA in PBS, washed and resuspended in FACS buffer (PBS, 3% FBS, 0.05% sodium azide), and seeded in Nunc U-bottom 96-well plates (Thermo Fisher Scientific, USA) at approximately 3×10⁵ cells per well.
(§2) To pellet cells and remove supernatants, the plates were centrifuged at 1,500 rpm and 4° C. for 3 minutes. For primary staining, cells were resuspended in 100 μl per well of either FACS buffer alone (controls) or the purified antibodies 3, 5, 16, 22, 34, 42, 43, 44, 48, and 50 of the invention at 3 μg/ml FACS buffer and incubated on ice for 1 hour. Afterwards, plates were centrifuged at 1,500 rpm and 4° C. for 3 minutes and washed twice with 200 μl per well of FACS buffer. For secondary staining, cells were spun down and resuspended in 100 μl per well of PE-conjugated goat anti-mouse IgG F(ab′)2 detection fragment (Dianova, Germany) diluted 1:100 in FACS buffer. Protected from light, the cell suspensions were incubated on ice for 1 hour. Plates were then centrifuged at 1,500 rpm and 4° C. for 3 minutes and washed three times with 200 μl per well of FACS buffer. Finally, cells were resuspended in 150 μl per well of FACS buffer and analyzed using a BD Accuri™ C6 Plus flow cytometer (Becton Dickinson, Germany).

[3] = molecular target: T2, hiR2-FL-G546A-T7; assay: FACS, MEF-DKO cells, 3 µg/ml
Excerpt: as §1, §2

| Binder | binding result [1] | loss of binding vs wild type [2] | loss of binding vs wild type [3] |
| --- | --- | --- | --- |
| antibody 5 (antibody, V domains shown, mouse IgG, kappa light chain; also called clone #5; purified antibody 5) VH: QVTLKESGPGILQPSQTLSLTCSFSGFSLSTFGMGVGWIRQPSGKGLEWLAHIWWDDEKYYNSALKSRLTISKATSKNQAFLKIANVDTADTATYYCARISNYGSNYWYFNVWGTGTTVTVSS VL: QVVLTQSPALMSASPGEKVTMTCSAGSSVSCMYWYQQKPGSSPRVLIYDTSNLASGVPARFTGSGSGTSYSLTISRMEAEDAASYYCQQWNSYPLTFGAGTKLELK | no binding (tested: 3 µg/ml) | ≥ 95% | ≥ 95% |
| antibody 42 (antibody, V domains shown, mouse IgG, kappa light chain; also called clone #42; purified antibody 42) VH: QVTLKESGPGILQPSQTLSLTCSLSGFSLSTFGRGVGWIRQPSGKGLEWLAHIWWDDEKYYNPALKSRLTISKDTSKNQVFLRIANVDTADTATYYCARIQNYGSNYWYFDVWGTGTTVTVSS VL: LIVLTQSPAIMSASPGEKVTMTCGATSRISYMFWYQQKPGSSPRVLIYDTSNLASGVPVRFSGSGSGTSYSLTISRVEAEDVATYYCQQWNSYPLTFGAGTKLELK | no binding (tested: 3 µg/ml) | ≥ 95% | ≥ 60% |
| antibody 43 (antibody, V domains shown, mouse IgG, kappa light chain; also called clone #43; purified antibody 43) VH: QVALKESGPGILQPSQTLSLTCSFSGFSLSTFGMGVGWIRQSSGKGLEWLANIWWDDDKYYNPALKSRLTISKDASKNQAFLKIANVDTADTATYYCARIGNYGSNYWYFDVWGTGTTVTVSS VL: QIVLTQSPAIMSASPGERVTMTCSANSRISYMYWYQQKPGSSPRLLIYDTSNLASGVPVRFSGSGSGTSYSLTISRMEAEDAATYNCQQWSSYPLTFGAGTKLELK | no binding (tested: 3 µg/ml) | ≥ 95% | ≥ 60% |
| antibody 44 (antibody, V domains shown, mouse IgG, kappa light chain; also called clone #44; purified antibody 44) VH: QVTLKESGPGILQPSQTLSLTCSFSGFSLSTFGMGVGWIRQPSEKGLEWLAHIWWDDDKYYNPALKSRLTISKDTSKNQIFLKITNVDTAETATYYCSRIGNYGSNYWYFDVWGTGTTVTVSS VL: QIVLTQSPAVMSASPGEKVTMTCTASSSVYYMYWYQQTPGSSPRLLIYDTSNLASGVPVRFSGSGSGTSYSLTISRMEAEDAATYYCQQWNTYPLTFGAGTKLELK | no binding (tested: 3 µg/ml) | ≥ 95% | ≥ 60% |
| antibody 22 (antibody, V domains shown, mouse IgG, kappa light chain; also called clone #22; purified antibody 22) VH: QVTLKESGPGILQPSQTLSLTCSFSGFSLSTFGMGVGWIRQPSGKGLEWLAHIWWDDEKYYNSALKSRLTISKATSKNQVFLKIANVDTADTATYYCARISNYGSNYWYFNVWGTGTTVTVSS VL: QVVLTQSPALMSASPGEKVTMTCSAGSSVSYMYWYQQKPGSSPRVLIYDTSNLASGVPARFTGSGSGTSYSLTISRMEAEDAATYYCQQWNSYPLTFGAGTKLELK | no binding (tested: 3 µg/ml) | ≥ 95% | ≥ 30% |
| antibody 16 (antibody, V domains shown, mouse IgG, kappa light chain; also called clone #16; purified antibody 16) VH: QVTLKESGPGILQPSQTLSLTCSFSGFSLSTFALGVGWIRQPSGRGLEWLAHIWWDDDKYYNPALKSRLTISKDTSKNHVFLKIANVDTADTATYYCARITTYYYGMDYWGQGTSVTVSS VL: DIVLSQSPATLSVTPGDSVSLFCRASQSIGNHLHWYQQESHASPRLLIKYASQSISGIPSRFSGSGSGTDFTLSINSVETEDFGMYFCQQSYNWPLTFGAGTKLELK | no binding (tested: 3 µg/ml) | ≥ 95% | – |
| antibody 3 (antibody, V domains shown, mouse IgG, kappa light chain; also called clone #3; purified antibody 3) VH: QVTLKESGPGILQPSQTLSLTCSFSGFSLTTFAMGIGWVRQPSGKGLEWLAHIWWDGEKYNNPVLKSRLTISKDTSKNQVFLRIANVDTPDTATYYCARISSIYYIIDNWGQGTSVTVSS VL: DIVLTQSPATLSVTPGHSVSLSCRASQSISNNLHWYQKKSHESPRLLIKYVSQSISGIPSRFSGSGSGTDFTLSINSVETEDFGMYFCQQSYNWPLTFGAGTKLELK | – | ≥ 95% | ≥ 30% |
| antibody 48 (antibody, V domains shown, mouse IgG, kappa light chain; also called clone #48; purified antibody 48) VH: QVQLQQSGTELVRPGTSVKVSCKASGYAFTNYLIEWVKQRPGQGLEWIGVINPGSGFTKYNEKFKGKATLTADKSSSTVYMHLSSLTSEDSAVYFCARGLYRAMDYWGQGTSVTVSS VL: DIQMTQSPASQSASLGESVTITCLASQTIATWLAWYQQKPGKSPQLLIYGATTLADGVPSRFSGGGSGTKFSFKISSLQAEDFVSYYCQQLYSTPYTFGGGTKLEIK | – | ≥ 60% | – |
| antibody 50 (antibody, V domains shown, mouse IgG, kappa light chain; also called clone #50; purified antibody 50) VH: QVQLQQSGAELVRPGASVKVSCKASGYAFSNYLIEWVKQRPGQGLEWIGVINPGSGFTKYNEKFKGKATLTADKSSSTAYMQLSSLTSEDSAVYFCARGLYRAMDYWGQGTSVTVSS VL: DIQMTQSPASQSASLGESVTITCLASQTIGTWLAWYQQKPGKSPQLLIYAAASLADGVPSRFSGGGSGTKFSFKISSLQAEDFVNYYCQQIYSTPYTFGGGTKLEIK | – | ≥ 95% | ≥ 30% |
| antibody 34 (antibody, V domains shown, mouse IgG, kappa light chain; also called clone #34; purified antibody 34) VH: QVTLKESGPGILQPSQTLSLTCSFSGFSLSTFSLGVGWIRQSSGKGLEWLAHIWWDDEKYYNPALKSRLTISKDTSKNQVFLKIANVDAADTATYYCARAYYSKSYYALDYWGQGTSVTVSS VL: DIQMTQSPSSLSASLGERVSLTCRASQEISGYLSWLQQKPDGTIKRLIYAASTLDSGVPKRFSGSRSGSDYSLAISSLESEDFADYYCLQYANFPFTFGSGTKLEIK | no binding (tested: 3 µg/ml) | ≥ 95% | ≥ 60% |
